Several values for one entry are separate records, joined by “and”; a condition that tells them apart may be missing. Equal values may be shown once.
Key:
human IL-12 [1] = molecular target: T1, human IL-12 (human, UniProt P29459 23-219; P29460 23-328); experiment: cell-based or functional assay
T1 sequence (looked up) 1: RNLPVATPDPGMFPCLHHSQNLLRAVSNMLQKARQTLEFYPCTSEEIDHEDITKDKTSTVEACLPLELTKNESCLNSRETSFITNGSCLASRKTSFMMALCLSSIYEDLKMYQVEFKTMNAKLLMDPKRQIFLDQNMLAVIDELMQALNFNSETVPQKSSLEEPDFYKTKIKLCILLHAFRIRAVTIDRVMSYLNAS
T1 sequence (looked up) 2: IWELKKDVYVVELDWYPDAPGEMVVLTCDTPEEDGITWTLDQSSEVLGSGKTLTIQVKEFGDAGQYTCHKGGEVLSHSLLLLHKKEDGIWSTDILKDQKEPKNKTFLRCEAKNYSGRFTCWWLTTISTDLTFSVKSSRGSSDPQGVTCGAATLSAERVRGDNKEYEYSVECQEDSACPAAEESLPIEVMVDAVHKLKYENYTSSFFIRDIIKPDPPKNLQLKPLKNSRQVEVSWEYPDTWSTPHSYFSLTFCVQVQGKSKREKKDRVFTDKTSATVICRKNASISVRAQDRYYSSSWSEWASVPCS

human IL-12 [2] = molecular target: T1, human IL-12; experiment: SPR (BIAcore), IL-12 chip
Description: The system utilizes the optical properties of SPR to detect alterations in protein concentrations within a dextran biosensor matrix. Proteins are covalently bound to the dextran matrix at known concentrations. […] To determine the off rate (koff), on rate (kₒₙ), association rate (Ka) and dissociation rate (Kd) constants, BIAcore kinetic evaluation software (version 2.1) was used.

[3] = molecular target: T2, recombinant human IL-12 (rhIL-12) (human, UniProt P29459 23-219; P29460 23-328); experiment: cell-based or functional assay
T2 sequence (looked up) 1: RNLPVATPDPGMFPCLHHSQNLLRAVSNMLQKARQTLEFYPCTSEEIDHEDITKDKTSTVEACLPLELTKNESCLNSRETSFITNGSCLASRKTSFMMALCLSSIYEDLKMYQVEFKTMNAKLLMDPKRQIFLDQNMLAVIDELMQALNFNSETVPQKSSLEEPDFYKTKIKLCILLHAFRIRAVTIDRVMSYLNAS
T2 sequence (looked up) 2: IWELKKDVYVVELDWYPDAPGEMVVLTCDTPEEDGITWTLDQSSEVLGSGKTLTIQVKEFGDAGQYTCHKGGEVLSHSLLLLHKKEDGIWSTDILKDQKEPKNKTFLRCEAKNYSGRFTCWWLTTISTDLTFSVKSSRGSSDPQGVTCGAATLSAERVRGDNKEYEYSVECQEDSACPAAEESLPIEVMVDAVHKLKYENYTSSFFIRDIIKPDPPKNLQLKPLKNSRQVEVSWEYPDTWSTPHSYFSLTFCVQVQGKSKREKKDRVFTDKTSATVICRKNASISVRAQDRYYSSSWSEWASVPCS

[4] = molecular target: T2, recombinant human IL-12 (rhIL-12); experiment: BIAcore SPR, IL-12 on chip
[5] = molecular target: T2, recombinant human IL-12 (rhIL-12); experiment: receptor binding assay, 125I-hIL-12 on PHA blasts
Procedure: (§1) PHA blast cells isolated as described above, were washed once and resuspended in binding buffer to a cell density of 2×10⁷ cells/ml. […] The cell pellet was examined for cell bound radioactivity using a gamma counter. […] Incubations were carried out in duplicate.

human IL-12 [6] = molecular target: T1, human IL-12; experiment: RB assay: 125I-hIL-12 binding to PHA blasts
Procedure: as §1

B1: 26-1 (scFv, V domains shown)
VH: QVQLVQSGGGVVQPGRSLRLSCAASGFTFSSYGMHWVRQAPGKGLEWVAFIRYDGSNKYYADSVKGRFTISRDNSKNTLYLQMKSLRAEDTAVYYCTTHGSHDNWGQGTMVTVSS
VL: SYVLTQPPSVSGTPGQRVTISCSGGRSNIGSNTVKWYQQLPGTAPKLLIYGNDQRPSGVPDRFSGSKSGTSASLAITGVQAEDEADYYCQSYDSSLWGSRVFGTGTKVTVL
notes: scFv; also called 26-1 (2, 3)
- PHA assay IC50 (human IL-12 [1]): 60 nM
- koff (human IL-12 [2]): 0.0074 s⁻¹

B2: 136-15 germline (scFv, V domains shown)
VH: QVQLVESGGGVVQPGRSLRLSCAASGFTFSSYGMHWVRQAPGKGLEWVAFIRYDGSNKYYADSVKGRFTISRDNSKNTLYLQMNSLRAEDTAVYYCKTHGSHDNWGQGTMVTVSS
VL: QSVLTQPPSVSGAPGQRVTISCSGSRSNIGSNTVKWYQQLPGTAPKLLIYGNDQRPSGVPDRFSGSKSGTSASLAITGLQAEDEADYYCQTYDKGFTGSSVFGTGTKVTVL
- PHA assay IC50 (human IL-12 [1]): 6 nM
- koff (human IL-12 [2]): 0.00046 s⁻¹

B3: Y174 (scFv, V domains shown)
VH: QVQLVQSGGGVVQPGRSLRLSCAASGFTFSSYGMHWVRQAPGKGLEWVAFIRYDGSNKYYADSVKGRFTISRDNSKNTLYLQMKSLRAEDTAVYYCKTHGSHDNWGQGTMVTVSS
VL: SYVLTQPPSVSGTPGQRVTISCSGGRSNIGSNTVKWYQQLPGTAPKLLIYGNDQRPSGVPDRFSGSKSGTSASLAITGVQAEDEADYYCQSYDRGTTPAPEFGTGTKVTVL
notes: scFv clone
- PHA assay IC50 [3]: 2 nM
- koff [4]: 0.000755 s⁻¹
- IC50 [5]: 0.06 nM

B4: 79-1 (scFv, V domains shown)
VH: QVQLVQSGGGVVQPGRSLRLSCAASGFTFSSYGMHWVRQAPGKGLEWVAFIRYDGSNKYYADSVKGRFTISRDNSKNTLYLQMKSLRAEDTAVYYCTTSGSYDYWGQGTMVTVSS
VL: SYVLTQPPSVSGTPGQRVTISCSGGRSNIGSNTVKWYQQLPGTAPKLLIYGNDQRPSGVPDRFSGSKSGTSASLAITGVQAEDEADYYCQSYDSSLWGSRVFGTGTKVTVL
notes: scFv
- PHA assay IC50 (human IL-12 [1]): 600 nM
- IC50 (human IL-12 [6]): 200 nM

B5: 103-4 (scFv, V domains shown)
VH: QVQLVQSGGGVVQPGRSLRLSCAASGFTFSSYGMHWVRQAPGKGLEWVAFIRYDGSNKYYADSVKGRFTISRDNSKNTLYLQMKSLRAEDTAVYYCTTHGSHDNWGQGTMVTVSS
VL: SYVLTQPPSVSGTPGQRVTISCSGGRSNIVSNTVKWYQQLPGTAPKLLIYGNDQRPSGVPDRFSGSKSGTSASLAITGVQAEDEADYYCQSYDRGFTGARVFGTGTKVTVL
notes: scFv
- PHA assay IC50 (human IL-12 [1]): 0.9 nM
- koff (human IL-12 [2]): 0.00016 s⁻¹
- IC50 (human IL-12 [6]): 0.086 nM

B6: 103-8 & 2 (scFv, V domains shown)
VH: QVQLVQSGGGVVQPGRSLRLSCAASGFTFSSYGMHWVRQAPGKGLEWVAFIRYDGSNKYYADSVKGRFTISRDNSKNTLYLQMKSLRAEDTAVYYCKTHGSHDNWGQGTMVTVSS
VL: SYVLTQPPSVSGTPGQRVTISCSGGRSNIGSNTVKWYQQLPGTAPKLLIYGNDQRPSGVPDRFSGSKSGTSASLAITGVQAEDEADYYCQTYDKGFTGSSVFGTGTKVTVL
notes: scFv
- PHA assay IC50 (human IL-12 [1]): 1.5 nM
- koff (human IL-12 [2]): 0.00053 s⁻¹

B7: G6 (scFv, V domains shown)
VH: QVQLVQSGGGVVQPGRSLRLSCAASGFTFSSYGMHWVRQAPGKGLEWVAFIRYDGSNKYYADSVKGRFTISRDNSKNTLYLQMKSLRAEDTAVYYCKTHGSHDNWGQGTMVTVSS
VL: SYVLTQPPSVSGTPGQRVTISCSGGRSNIGSNTVKWYQQLPGTAPKLLIYGNDQRPSGVPDRFSGSKSGTSASLAITGVQAEDEADYYCQSYDRGTHPLTIFGTGTKVTVL
notes: scFv clone
- PHA assay IC50 [3]: 1 nM
- koff [4]: 0.000508 s⁻¹
- IC50 [5]: 0.1 nM

B8: Y177 (scFv, V domains shown)
VH: QVQLVQSGGGVVQPGRSLRLSCAASGFTFSSYGMHWVRQAPGKGLEWVAFIRYDGSNKYYADSVKGRFTISRDNSKNTLYLQMKSLRAEDTAVYYCKTHGSHDNWGQGTMVTVSS
VL: SYVLTQPPSVSGTPGQRVTISCSGGRSNIGSNTVKWYQQLPGTAPKLLIYGNDQRPSGVPDRFSGSKSGTSASLAITGVQAEDEADYYCQSYDRGSHPTLIFGTGTKVTVL
notes: scFv clone
- PHA assay IC50 [3]: 1 nM
- koff [4]: 0.000661 s⁻¹
- IC50 [5]: 0.05 nM

B9: 78-34 (scFv, V domains shown)
VH: QVQLVQSGGGVVQPGRSLRLSCAASGFTFSSYGMHWVRQAPGKGLEWVAFIRYDGSNKYYADSVKGRFTISRDNSKNTLYLQMKSLRAEDTAVYYCTTSGSYDYWGQGTMVTVSS
VL: SYVLTQPPSVSGTPGQRVTISCSGGRSNIGSNTVKWYQQLPGTAPKLLIYGNDQRPSGVPDRFSGSKSGTSASLAITGVQAEDEADYYCQSYDRGFTGSRVFGTGTKVTVL
notes: scFv
- PHA assay IC50 (human IL-12 [1]): 600 nM
- koff (human IL-12 [2]): 0.0164 s⁻¹
- IC50 (human IL-12 [6]): 200 nM

B10: 70-1 (scFv, V domains shown)
VH: QVQLVQSGGGVVQPGRSLRLSCAASGFTFSSYGMHWVRQAPGKGLEWVAFIRYDGSNKYYADSVKGRFTISRDNSKNTLYLQMKSLRAEDTAVYYCTTHGSHDNWGQGTMVTVSS
VL: SYVLTQPPSVSGTPGQRVTISCSGGRSNIGSNTVKWYQQLPGTAPKLLIYGNDQRPSGVPDRFSGSKSGTSASLAITGVQAEDEADYYCQSYDSSLRGSRVFGTGTKVTVL
notes: scFv
- PHA assay IC50 (human IL-12 [1]): 200 nM
- koff (human IL-12 [2]): 0.0134 s⁻¹

B11: Y45 (scFv, V domains shown)
VH: QVQLVQSGGGVVQPGRSLRLSCAASGFTFSSYGMHWVRQAPGKGLEWVAFIRYDGSNKYYADSVKGRFTISRDNSKNTLYLQMKSLRAEDTAVYYCKTHGSHDNWGQGTMVTVSS
VL: SYVLTQPPSVSGTPGQRVTISCSGGRSNIGSNTVKWYQQLPGTAPKLLIYGNDQRPSGVPDRFSGSKSGTSASLAITGVQAEDEADYYCQSYDRGTDPAIVFGTGTKVTVL
notes: scFv clone
- PHA assay IC50 [3]: 4.3 nM
- koff [4]: 0.000617 s⁻¹
- IC50 [5]: 0.04 nM

B12: 103-7 (scFv, V domains shown)
VH: QVQLVQSGGGVVQPGRSLRLSCAASGFTFSSYGMHWVRQAPGKGLEWVAFIRYDGSNKYYADSVKGRFTISRDNSKNTLYLQMKSLRAEDTAVYYCTTHGSHDDWGQGTMVTVSS
VL: SYVLTQPPSVSGTPGQRVTISCSGGRSNIGSNTVKWYQQLPGTAPKLLIYGNDQRPSGVPDRFSGSKSGTSASLAITGVQAEDEADYYCQSYDRDFTGTRVFGTGTKVTVL
notes: scFv
- PHA assay IC50 (human IL-12 [1]): 1 nM
- koff (human IL-12 [2]): 0.00037 s⁻¹
- IC50 (human IL-12 [6]): 0.14 nM

B13: Y139 (scFv, V domains shown)
VH: QVQLVQSGGGVVQPGRSLRLSCAASGFTFSSYGMHWVRQAPGKGLEWVAFIRYDGSNKYYADSVKGRFTISRDNSKNTLYLQMKSLRAEDTAVYYCKTHGSHDNWGQGTMVTVSS
VL: SYVLTQPPSVSGTPGQRVTISCSGGRSNIGSNTVKWYQQLPGTAPKLLIYGNDQRPSGVPDRFSGSKSGTSASLAITGVQAEDEADYYCQSYDRGSHPALTFGTGTKVTVL
notes: scFv clone
- PHA assay IC50 [3]: 0.45 nM
- koff [4]: 0.000592 s⁻¹
- IC50 [5]: 0.03 nM

B14: Y38 (scFv, V domains shown)
VH: QVQLVQSGGGVVQPGRSLRLSCAASGFTFSSYGMHWVRQAPGKGLEWVAFIRYDGSNKYYADSVKGRFTISRDNSKNTLYLQMKSLRAEDTAVYYCKTHGSHDNWGQGTMVTVSS
VL: SYVLTQPPSVSGTPGQRVTISCSGGRSNIGSNTVKWYQQLPGTAPKLLIYGNDQRPSGVPDRFSGSKSGTSASLAITGVQAEDEADYYCQSYDRGTHPSITFGTGTKVTVL
notes: scFv clone
- PHA assay IC50 [3]: 2.6 nM
- koff [4]: 0.000508 s⁻¹
- IC50 [5]: 0.055 nM

B15: 101-11 (scFv, V domains shown)
VH: QVQLVQSGGGVVQPGRSLRLSCAASGFTFSSYGMHWVRQAPGKGLEWVAFIRYDGSNKYYADSVKGRFTISRDNSKNTLYLQMKSLRAEDTAVYYCTTHGSHDNWGQGTMVTVSS
VL: SYVLTQPPSVSGTPGQRVTISCSGGRSNIGSNTVKWYQQLPGTAPKLLIYGNDQRPSGVPDRFSGSKSGTSASLAITGVQAEDEADYYCQSYDRGFTGSRVFGTGTKVTVL
notes: scFv
- PHA assay IC50 (human IL-12 [1]): 30 nM and 20 nM
- koff (human IL-12 [2]): 0.0045 s⁻¹
- IC50 (human IL-12 [6]): 2 nM
